Experimental data published in patent US20260115256A1 (HANGZHOU SCIWIND BIOSCIENCES, published 2026).
*1 amine or outer side, *2 acyl side, *3 side chain or, on linkers, in order; H or OH if unused. Bridges are numbered along the chain shown (N, C = ends). Primed or numbered codes have the meaning given here. Where no end group is shown, it is not given here. Side-chain parts run from the residue outwards. [ ]: non-standard residue; d: D form. The star is where a group is joined. C20 diacid = O=C(O)CCCCCCCCCCCCCCCCCCC(=O)*; γGlu = O=C(O)[C@H](CCC(=O)[*:2])N[*:1]; Hyp = O=C(O)[C@@H]1C[C@@H](O)CN1; αMeP = C[C@@]1(C(=O)O)CCCN1; Orn = NCCC[C@H](N)C(=O)O; Aze = O=C(O)[C@@H]1CCN1; Dab = NCC[C@H](N)C(=O)O; Pip′ = not defined here; Dap = NC[C@H](N)C(=O)O; AEEA = NCCOCCOCC(=O)O

Target: T1, human amylin receptor (AMY3) on CHO-K1/Ga15/AMY3 cells (human, UniProt P30988 25-474; O60896 24-148)
T1 sequence (looked up) 1: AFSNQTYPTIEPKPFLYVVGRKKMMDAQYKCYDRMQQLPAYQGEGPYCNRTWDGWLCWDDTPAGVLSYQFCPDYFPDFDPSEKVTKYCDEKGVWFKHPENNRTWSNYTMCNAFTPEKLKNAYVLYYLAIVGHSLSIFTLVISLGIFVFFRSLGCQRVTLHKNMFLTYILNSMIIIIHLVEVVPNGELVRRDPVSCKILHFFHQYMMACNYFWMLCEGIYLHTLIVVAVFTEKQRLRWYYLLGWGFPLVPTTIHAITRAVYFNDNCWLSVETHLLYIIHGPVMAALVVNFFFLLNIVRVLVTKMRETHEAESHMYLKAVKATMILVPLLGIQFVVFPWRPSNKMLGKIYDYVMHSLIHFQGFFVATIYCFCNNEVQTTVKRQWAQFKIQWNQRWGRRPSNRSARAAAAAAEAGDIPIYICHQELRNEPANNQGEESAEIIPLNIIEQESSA
T1 sequence (looked up) 2: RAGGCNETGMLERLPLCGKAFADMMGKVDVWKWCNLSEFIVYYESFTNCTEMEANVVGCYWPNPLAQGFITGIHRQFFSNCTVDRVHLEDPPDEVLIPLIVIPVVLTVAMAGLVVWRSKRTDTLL
Assay: cell-based or functional assay

| Binder | EC50, CRE-luciferase assay [nM] |
| --- | --- |
| RCNTATCATQRLADFLRHSSNNLK([γGlu-C20 diacid])PILPPTNVGSNT[cis‑Hyp]-NH2 (disulfide 2-7 (inferred)) [PD056] | 0.586 |
| RCNTATCATQRLAEFLRHSSNNLK([γGlu-C20 diacid])PILPPTNVGSNT[Aze]-NH2 (disulfide 2-7 (inferred)) [PD059] | 0.939 |
| [Orn]CNTATCATQRLADFLRHSSNNLK([γGlu-C20 diacid])PILPPTNVGSNT[Hyp]-NH2 (disulfide 2-7 (inferred)) [PD075] | 0.048 |
| CNTATCATQRLAEFLRHSSNNLK([γGlu-C20 diacid])PILPPTNVGSNTX-NH2 (disulfide 1-6 (inferred); not fully specified (residue 36); printed as CNTATCATQRLAEFLRHSSNNLKPILPPTNVGSNT-trans-Hyp-NH2) [PD053] | 0.075 |
| RCNTATCATQRLAEFLRHSSNNLK([γGlu-C20 diacid])PILPPTNVGSNT[Pip′]-NH2 (disulfide 2-7 (inferred)) [PD057] | 0.793 |
| RCNTATCATQRLAEFLRHSSNNLK([γGlu-C20 diacid])PILPPTNVGSNT[αMeP]-NH2 (disulfide 2-7 (inferred)) [PD063] | 0.101 |
| RCNTATCATQRLAEFLRHSSNNK([AEEA-AEEA-γGlu-C20 diacid])GPILPPTNVGSNTP-NH2 (disulfide 2-7 (inferred)) [PD003] | 0.14 |
| [Dab]CNTATCATQRLADFLRHSSNNLK([γGlu-C20 diacid])PILPPTNVGSNT[Hyp]-NH2 (disulfide 2-7 (inferred)) [PD074] | 0.066 |
| [Dap]CNTATCATQRLADFLRHSSNNLK([γGlu-C20 diacid])PILPPTNVGSNT[Hyp]-NH2 (disulfide 2-7 (inferred)) [PD073] | 0.063 |
| {C20 diacid-γGlu}-KCNTATCATQRLADFLRHSSNNFGPILPPTNVGSNT[Hyp]-NH2 (disulfide 2-7 (inferred)) [PD067] | 0.034 |
| {C20 diacid-γGlu}-KCNTATCATQRLADFLRHSSNNLGPILPPTNVGSNT[Hyp]-NH2 (disulfide 2-7 (inferred)) [PD069] | 0.039 |
| RCNTATCATQRLADFLRHSSNNLK([γGlu-C20 diacid])PILPPTNVGSNT[Aze]-NH2 (disulfide 2-7 (inferred)) [PD060] | 0.246 |
| K([γGlu-C20 diacid])CNTATCATQRLADFLRHSSNNFGPILPPTNVGSNT[Hyp]-NH2 (disulfide 2-7 (inferred)) [PD068] | 0.032 |
| CNTATCATQRLADFLRHSSNNLK([γGlu-C20 diacid])PILPPTNVGSNTP-NH2 (disulfide 1-6 (inferred)) [PD050] | 0.098 |
| RCNTATCATQRLAEFLRHSSNNLK([γGlu-C20 diacid])PILPPTNVGSNT[3‑Am‑Pro]-NH2 (disulfide 2-7 (inferred)) [PD061] | 0.815 |
| RCNTATCATQRLAEFLRHSSNK([AEEA-AEEA-γGlu-C20 diacid])LGPILPPTNVGSNTP-NH2 (disulfide 2-7 (inferred)) [PD002] | 0.119 |
| K([γGlu-C20 diacid])CNTATCATQRLAEFLRHSSNNFGPILPPTNVGSNTP-NH2 (ends and bridges not checked) [PD066] | 0.044 |
| {C20 diacid-γGlu}-KCNTATCATQRLADFLRHSSNNLKPILPPTNVGSNT[Hyp]-NH2 (disulfide 2-7 (inferred)) [PD071] | 0.028 |
| RCNTATCATQRLADFLRHSSNNLK([γGlu-C20 diacid])PILPPTNVGSNT[αMeP]-NH2 (disulfide 2-7 (inferred)) [PD064] | 0.055 |
| RCNTATCATQRLADFLRHSSNNLK([γGlu-C20 diacid])PILPPTNVGSNT[Pip′]-NH2 (disulfide 2-7 (inferred)) [PD058] | 0.319 |
| RCNTATCATQRLAEFLRHSSNNLK([γGlu-C20 diacid])PILPPTNVGSNT[cis‑Hyp]-NH2 (disulfide 2-7 (inferred)) [PD055] | 0.909 |
| CNTATCATQRLADFLRHSSNNLK([γGlu-C20 diacid])PILPPTNVGSNTX-NH2 (disulfide 1-6 (inferred); not fully specified (residue 36); printed as CNTATCATQRLADFLRHSSNNLKPILPPTNVGSNT-trans-Hyp-NH2) [PD054] | 0.049 |
| RCNTATCATQRLAEFLRHSSNNLK([AEEA-AEEA-γGlu-C20 diacid])PILPPTNVGSNTP-NH2 (disulfide 2-7 (inferred)) [PD004] | 0.102 |
| RCNTATCATQRLADFLRHSSNNLK([γGlu-C20 diacid])PILPPTNVGSNT[3‑Am‑Pro]-NH2 (disulfide 2-7 (inferred)) [PD062] | 0.374 |
| K([γGlu-C20 diacid])CNTATCATQRLADFLRHSSNNLGPILPPTNVGSNT[Hyp]-NH2 (disulfide 2-7 (inferred)) [PD070] | 0.038 |
| K([γGlu-C20 diacid])CNTATCATQRLADFLRHSSNNLKPILPPTNVGSNT[Hyp]-NH2 (disulfide 2-7 (inferred)) [PD072] | 0.027 |
